Results taken from publication PMC5458466, “DNA‐induced unfolding of the thyroid hormone receptor α A/B domain through allostery”.

Target: T1, TRα (A/B + DBD) (chicken, UniProt P04625 1-154)
T1 sequence: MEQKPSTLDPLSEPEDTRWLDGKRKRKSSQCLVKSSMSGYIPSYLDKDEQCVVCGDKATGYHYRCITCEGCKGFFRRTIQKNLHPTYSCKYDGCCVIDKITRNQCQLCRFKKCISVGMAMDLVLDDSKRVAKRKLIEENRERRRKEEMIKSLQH
Assay: intrinsic Trp fluorescence quenching; room temperature, 2 uM protein, 5 mM Mg2+; average Kd, two-site fit; 50 mM HEPES pH 7.5, 125 mM NaCl, 5 mM MgCl2, 1 mM TCEP; ITC 25 C, fluorescence room temperature
Settings: protein: recombinant; tags: 6xHis (pET15b); chain copies: 2; blunt; 19-mer complementary strands annealed

B1: DR4 TRE (dsDNA)
DNA 1: CCAGGTCATTTCAGGTCAG
DNA 2: CTGACCTGAAATGACCTGG
B1 gave a Kd of 2690 ± 220 nM.
